{
  "source": "patent US20250043302A1",
  "about": "“MUTATED HYDROXYPHENYLPYRUVATE DIOXYGENASE POLYPEPTIDE, AND CODING GENE AND USE THEREOF” (BEIJING DABEINONG BIOTECHNOLOGY CO., LTD., priority 2021, published 2025)",
  "molecules": {"B1": {"name": "GmHPPD-02: nucleotide sequence encoding wild-type Glycine max HPPD; vector DBN11746 (nucleic acid)", "DNA": "ATGCCAATGTACACACCATCGCTCTCCGCCCCTTCTTCCAACCATATTCAGCCATCCGTGACTCTGCCTCTCTACATCACAACCACCAAGTTGAACCTGAAGCAGCAGCACCATACGACTCCTATGCCTATACCCATGTGCAATGAGATCCAAGCACAGGCTCAGGCACAAGCTCAACCCGGATTCAAACTCGTGGGATTCAAGAACTTCGTCCGTACCAATCCAAAATCTGACCGCTTCCAGGTGAACAGATTCCACCACATAGAGTTTTGGTGTACTGATGCAACGAATGCTTCGAGGAGGTTTTCATGGGGCTTAGGCATGCCGATTGTAGCAAAGTCAGACCTTTCTACAGGGAACCAAATTCATGCAAGCTATCTGCTCCGCTCAGGTGATTTGTCTTTCTTGTTCTCAGCTCCATATTCTCCATCATTATCTGCTGGGTCATCAGCAGCATCTAGTGCGTCGATCCCTAGCTTTGATGCCGCCACCTGCCTCGCCTTCGCCGCCAAACATGGATTTGGTGTTCGCGCCATTGCTCTTGAGGTTGCCGATGCCGAGGCTGCTTTTAGCGCCTCCGTCGCCAAGGGAGCTGAGCCTGCGTCACCTCCTGTTCTTGTTGATGATCGAACTGGTTTTGCTGAAGTGCGTCTTTACGGCGACGTGGTGCTCAGATATGTTAGTTACAAGGATGCTGCTCCTCAAGCGCCGCACGCTGATCCTTCAAGATGGTTTCTTCCGGGGTTTGAGGCCGCTGCTAGTTCATCTTCCTTCCCGGAGTTGGATTACGGCATACGGCGGCTTGACCATGCTGTCGGCAATGTTCCTGAGCTTGCTCCGGCGGTACGGTACTTGAAAGGTTTCTCCGGGTTCCATGAATTTGCAGAGTTCACGGCGGAAGATGTTGGAACAAGTGAAAGCGGATTGAATTCTGTTGTTTTGGCCAACAACAGTGAAACTGTTCTGCTCCCCCTCAATGAACCAGTTTATGGCACAAAGCGCAAGAGCCAGATTGAAACATATCTCGAGCACAATGAAGGCGCCGGCGTCCAGCATCTTGCTTTGGTGACTCATGATATCTTCACAACACTTAGGGAGATGAGGAAGAGGAGTTTCCTCGGCGGGTTTGAATTCATGCCCAGTCCCCCGCCGACCTACTATGCAAATCTGCACAACAGGGCTGCAGATGTGCTGACTGTAGACCAGATCAAGCAATGTGAAGAACTTGGAATTTTAGTGGATAGAGACGACCAAGGTACACTACTTCAAATATTCACCAAACCAGTCGGTGACAGACCAACAATTTTCATCGAGATTATACAAAGAATTGGATGCATGGTCGAGGATGAAGAAGGGAAGGTGTACCAGAAGGGAGCATGTGGTGGTTTTGGGAAAGGAAATTTTTCTGAGCTGTTTAAATCCATCGAGGAATATGAGAAAACCTTAGAAGCTAAAAGAACTGCATGA", "modifications": "GmHPPD-02 Nucleotide Sequence", "notes": "vector DBN11746"}},
  "type_in_all_cases": "in vivo",
  "key": {"[1]": {"tested_on": "Arabidopsis thaliana T1 plants", "assay": "Mesotrione tolerance of transgenic Arabidopsis thaliana T1 plants (spray, bleached leaf area grade, damage score)", "set-up": "Scores: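 damage score 0-100 computed as Σ(N×S)/(T×M)×100 over grades 0-3 with higher meaning more damage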", "details": "Arabidopsis thaliana T1 plants; for Grade 0 (classification and statistics of the grade of pesticide damage; number of plants) / Grade 1 (classification and statistics of the grade of pesticide damage; number of plants) / Grade 2 (classification and statistics of the grade of pesticide damage; number of plants) / Grade 3 (classification and statistics of the grade of pesticide damage; number of plants): 16 plants", "outline": "(§1)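 Damage graded 0–3 from the proportion of bleached leaf area 7 days after spraying. Plants were glufosinate-selected T1 lines, 18 days after sowing, plus vector and wild-type controls. Rates: mesotrione 52.5–420, isoxaflutole 35–280, topramezone 25–200 g ai/ha, with water (0×).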"}, "[2]": {"tested_on": "Arabidopsis thaliana T1 plants", "assay": "Topramezone tolerance of transgenic Arabidopsis thaliana T1 plants (spray, bleached leaf area grade, damage score)", "details": "7 DAT, Table 4; for Classification and statistics of the grade of pesticide damage: Grade 0 / Classification and statistics of the grade of pesticide damage: Grade 1 / Classification and statistics of the grade of pesticide damage: Grade 2 / Classification and statistics of the grade of pesticide damage: Grade 3: number of plants; for Scores: pesticide damage score 0-100", "outline": "as §1"}, "[3]": {"tested_on": "Arabidopsis thaliana T1 plants", "assay": "Isoxaflutole tolerance of transgenic Arabidopsis thaliana T1 plants (spray, bleached leaf area grade, damage score)", "set-up": "Scores (pesticide damage): scale not given here", "details": "spray, Arabidopsis thaliana T1 plants; for Classification and statistics of the grade of pesticide damage: Grade 0 (number of plants) / Classification and statistics of the grade of pesticide damage: Grade 1 (number of plants) / Classification and statistics of the grade of pesticide damage: Grade 2 (number of plants) / Classification and statistics of the grade of pesticide damage: Grade 3 (number of plants): 16 plants", "outline": "as §1"}, "[4]": {"details": "isoxaflutole 35 g ai/ha (0.5x field concentration)"}, "[5]": {"details": "isoxaflutole 70 g ai/ha (1x field concentration)"}},
  "data": [
    {"molecule": "B1", "values": [
      {"measurement": "Resistance evaluation", "setting": "[1]; mesotrione 52.5 g ai/ha", "value": "Non-resistant"},
      {"measurement": "Scores", "setting": "[1]; mesotrione 52.5 g ai/ha", "value": 100},
      {"measurement": "Grade 0 (classification and statistics of the grade of pesticide damage; number of plants)", "setting": "[1]; mesotrione 52.5 g ai/ha", "value": 0},
      {"measurement": "Grade 1 (classification and statistics of the grade of pesticide damage; number of plants)", "setting": "[1]; mesotrione 52.5 g ai/ha", "value": 0},
      {"measurement": "Grade 2 (classification and statistics of the grade of pesticide damage; number of plants)", "setting": "[1]; mesotrione 52.5 g ai/ha", "value": 0},
      {"measurement": "Grade 3 (classification and statistics of the grade of pesticide damage; number of plants)", "setting": "[1]; mesotrione 52.5 g ai/ha", "value": 16},
      {"measurement": "Resistance evaluation", "setting": "[1]; mesotrione 105 g ai/ha", "value": "Non-resistant"},
      {"measurement": "Scores", "setting": "[1]; mesotrione 105 g ai/ha", "value": 100},
      {"measurement": "Grade 0 (classification and statistics of the grade of pesticide damage; number of plants)", "setting": "[1]; mesotrione 105 g ai/ha", "value": 0},
      {"measurement": "Grade 1 (classification and statistics of the grade of pesticide damage; number of plants)", "setting": "[1]; mesotrione 105 g ai/ha", "value": 0},
      {"measurement": "Grade 2 (classification and statistics of the grade of pesticide damage; number of plants)", "setting": "[1]; mesotrione 105 g ai/ha", "value": 0},
      {"measurement": "Grade 3 (classification and statistics of the grade of pesticide damage; number of plants)", "setting": "[1]; mesotrione 105 g ai/ha", "value": 16},
      {"measurement": "Classification and statistics of the grade of pesticide damage: Grade 0", "setting": "[2]; topramezone 25 g ai/ha (1×)", "value": 0},
      {"measurement": "Classification and statistics of the grade of pesticide damage: Grade 1", "setting": "[2]; topramezone 25 g ai/ha (1×)", "value": 0},
      {"measurement": "Classification and statistics of the grade of pesticide damage: Grade 2", "setting": "[2]; topramezone 25 g ai/ha (1×)", "value": 0},
      {"measurement": "Classification and statistics of the grade of pesticide damage: Grade 3", "setting": "[2]; topramezone 25 g ai/ha (1×)", "value": 16},
      {"measurement": "Classification and statistics of the grade of pesticide damage: Grade 0", "setting": "[2]; topramezone 100 g ai/ha (4×)", "value": 0},
      {"measurement": "Classification and statistics of the grade of pesticide damage: Grade 1", "setting": "[2]; topramezone 100 g ai/ha (4×)", "value": 0},
      {"measurement": "Classification and statistics of the grade of pesticide damage: Grade 2", "setting": "[2]; topramezone 100 g ai/ha (4×)", "value": 0},
      {"measurement": "Classification and statistics of the grade of pesticide damage: Grade 3", "setting": "[2]; topramezone 100 g ai/ha (4×)", "value": 16},
      {"measurement": "Scores", "setting": "[2]; topramezone 25 g ai/ha (1×)", "value": 100},
      {"measurement": "Scores", "setting": "[2]; topramezone 100 g ai/ha (4×)", "value": 100},
      {"measurement": "Resistance evaluation", "setting": "[2]; topramezone 25 g ai/ha (1×)", "value": "non-resistant (non-resistant plants (scores 68-100))"},
      {"measurement": "Resistance evaluation", "setting": "[2]; topramezone 100 g ai/ha (4×)", "value": "non-resistant (non-resistant plants (scores 68-100))"},
      {"measurement": "Resistance evaluation", "setting": "[3]; [4]", "value": "Non-resistant"},
      {"measurement": "Scores (pesticide damage)", "setting": "[3]; [4]", "value": 100},
      {"measurement": "Classification and statistics of the grade of pesticide damage: Grade 0 (number of plants)", "setting": "[3]; [4]", "value": 0},
      {"measurement": "Classification and statistics of the grade of pesticide damage: Grade 1 (number of plants)", "setting": "[3]; [4]", "value": 0},
      {"measurement": "Classification and statistics of the grade of pesticide damage: Grade 2 (number of plants)", "setting": "[3]; [4]", "value": 0},
      {"measurement": "Classification and statistics of the grade of pesticide damage: Grade 3 (number of plants)", "setting": "[3]; [4]", "value": 16},
      {"measurement": "Resistance evaluation", "setting": "[3]; [5]", "value": "Non-resistant"},
      {"measurement": "Scores (pesticide damage)", "setting": "[3]; [5]", "value": 100},
      {"measurement": "Classification and statistics of the grade of pesticide damage: Grade 0 (number of plants)", "setting": "[3]; [5]", "value": 0},
      {"measurement": "Classification and statistics of the grade of pesticide damage: Grade 1 (number of plants)", "setting": "[3]; [5]", "value": 0},
      {"measurement": "Classification and statistics of the grade of pesticide damage: Grade 2 (number of plants)", "setting": "[3]; [5]", "value": 0},
      {"measurement": "Classification and statistics of the grade of pesticide damage: Grade 3 (number of plants)", "setting": "[3]; [5]", "value": 16}
    ]}
  ]
}
